Molecular target: integrin α3β1 (human) (UniProt P26006)
Assay: cell-based or functional assay

Chain of UniProt P26006 (P26006 33-1051, chain 1 of 2): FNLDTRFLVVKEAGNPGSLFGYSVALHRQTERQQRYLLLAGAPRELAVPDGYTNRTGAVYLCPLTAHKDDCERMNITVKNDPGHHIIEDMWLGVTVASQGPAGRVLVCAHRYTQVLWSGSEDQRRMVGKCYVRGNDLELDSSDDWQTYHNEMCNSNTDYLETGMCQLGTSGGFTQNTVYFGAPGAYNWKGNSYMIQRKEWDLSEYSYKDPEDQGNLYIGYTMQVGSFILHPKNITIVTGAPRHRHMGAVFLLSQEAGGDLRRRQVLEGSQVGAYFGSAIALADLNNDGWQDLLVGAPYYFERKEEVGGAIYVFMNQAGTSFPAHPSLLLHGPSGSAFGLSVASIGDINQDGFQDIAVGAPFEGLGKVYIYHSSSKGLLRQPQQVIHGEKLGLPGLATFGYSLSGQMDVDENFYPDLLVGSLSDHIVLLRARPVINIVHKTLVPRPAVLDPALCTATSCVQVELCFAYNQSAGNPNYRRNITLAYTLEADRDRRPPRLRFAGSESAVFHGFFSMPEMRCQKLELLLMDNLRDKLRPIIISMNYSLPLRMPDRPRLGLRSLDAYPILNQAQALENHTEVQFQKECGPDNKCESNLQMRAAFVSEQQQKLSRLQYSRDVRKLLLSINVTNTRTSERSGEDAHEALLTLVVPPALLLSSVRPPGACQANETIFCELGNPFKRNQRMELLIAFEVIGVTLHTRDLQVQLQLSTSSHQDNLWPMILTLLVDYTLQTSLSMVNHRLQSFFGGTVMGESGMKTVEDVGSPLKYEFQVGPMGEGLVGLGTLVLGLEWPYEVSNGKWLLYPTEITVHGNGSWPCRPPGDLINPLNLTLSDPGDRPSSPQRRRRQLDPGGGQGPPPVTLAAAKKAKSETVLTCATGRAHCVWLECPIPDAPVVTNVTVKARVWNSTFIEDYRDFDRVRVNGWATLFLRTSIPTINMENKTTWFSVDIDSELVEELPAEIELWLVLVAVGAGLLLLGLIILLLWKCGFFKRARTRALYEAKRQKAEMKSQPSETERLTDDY
Chain of UniProt P26006 (P05556 21-798, chain 2 of 2, further chain): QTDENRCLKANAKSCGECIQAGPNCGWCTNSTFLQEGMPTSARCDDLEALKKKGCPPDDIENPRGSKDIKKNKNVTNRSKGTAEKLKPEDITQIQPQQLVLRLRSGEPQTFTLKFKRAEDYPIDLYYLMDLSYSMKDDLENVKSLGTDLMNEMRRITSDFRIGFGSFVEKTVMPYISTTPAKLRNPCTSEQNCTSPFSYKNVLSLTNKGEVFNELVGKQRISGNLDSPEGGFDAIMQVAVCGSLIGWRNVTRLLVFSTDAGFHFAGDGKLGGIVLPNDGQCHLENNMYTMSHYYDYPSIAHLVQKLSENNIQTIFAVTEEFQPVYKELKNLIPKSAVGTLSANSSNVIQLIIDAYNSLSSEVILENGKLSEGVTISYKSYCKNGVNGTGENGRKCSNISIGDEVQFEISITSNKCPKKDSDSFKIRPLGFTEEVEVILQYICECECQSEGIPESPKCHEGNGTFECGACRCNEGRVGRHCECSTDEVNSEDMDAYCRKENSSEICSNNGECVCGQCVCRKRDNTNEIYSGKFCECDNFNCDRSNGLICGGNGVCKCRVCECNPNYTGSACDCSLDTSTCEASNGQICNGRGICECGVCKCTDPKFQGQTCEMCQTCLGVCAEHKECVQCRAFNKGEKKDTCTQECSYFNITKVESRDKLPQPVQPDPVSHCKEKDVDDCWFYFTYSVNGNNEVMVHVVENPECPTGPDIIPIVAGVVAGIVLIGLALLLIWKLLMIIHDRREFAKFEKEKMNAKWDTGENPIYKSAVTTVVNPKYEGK

inhibition of HT-1080 cell binding to r-laminin-10 by mAbs against either α3 or β1: 80%
Substance: recombinant laminin-10 (human α5β1γ1 heterotrimer, α5 chain with C-terminal FLAG epitope) (from UniProt P07942 22-1786; P11047 34-1609) (ligand)
